Here are results for 2 molecules from patent US20160207963A1 (GlaxoSmithKline, published 2016).

Test [1] has as its target purified, his-tag depleted, recombinant Viet04 HA trimers (influenza A virus A/Vietnam/1203/04 …, UniProt Q6J8F6 17-531). Put plainly: complex formation, size exclusion gel filtration (Superdex 200). (SEC sorts molecules by how far they enter the pores of the column.)
In the next test the target is Vietnam Wt (HA1) (influenza A virus A/Vietnam/1203/04 …, UniProt Q6J8F6 17-346). Put plainly: biolayer interferometry (ForteBio), HA1 on biosensors probed with IgG 10 µg/ml. A general note: In BLI a coated tip is dipped into the sample, and binding shifts an interference pattern.

B1: 1A2 Fab (Fab, V domains shown)
VH: EVQLQQSGPELVKPGASVKMSCKASGYTFTSFIMYWVKQKPGQGLEWLGYIDPYNDGTKYNEKFEGKATLTSDKSSSTAYMELSSLTSEDSAVYYCAKRGNYGNGFAYWGQGTLVTVSA
VL: DIVMTQSQKFVSTSVGDRVSVTCKASQNVGSNVAWYQHKPGHSPTALIYSASHRYSGVPDRFTGSESGTDFTLTISNVQSEDLAEYFCQQYYSYPYTFGGGTKLEIKR
In the case of B1, in test [1], the binding result is on record as “binds”.

B2: mouse IgG 1A2 (antibody, V domains shown)
VH: EVQLQQSGPELVKPGASVKMSCKASGYTFTSFIMYWVKQKPGQGLEWLGYIDPYNDGTKYNEKFEGKATLTSDKSSSTAYMELSSLTSEDSAVYYCAKRGNYGNGFAYWGQGTLVTVSA
VL: DIVMTQSQKFVSTSVGDRVSVTCKASQNVGSNVAWYQHKPGHSPTALIYSASHRYSGVPDRFTGSESGTDFTLTISNVQSEDLAEYFCQQYYSYPYTFGGGTKLEIKR
Consider B2, for which the binding result with Vietnam Wt (HA1) is given as “binds”.
